This note sets out measurements from patent publication US20230192808A1 (REGENTS OF THE UNIVERSITY OF COLORADO A BODY CORPORATE, published 2023).

One assay deals with T1, HLA-DRB1*04:01 (human, UniProt P01903 26-216; P01911 30-227, limits assumed).
T1 construct: whole, on cells; on T2 cells; also called DR4
T1 MHC II alpha: not shown
T1 MHC II beta: not shown
As to the kind of experiment: flow cytometry, biotinylated peptide on HLA-expressing T2 cells, streptavidin-PE. For orientation: Flow cytometry measures light scatter and fluorescence of single cells or particles in a stream.

Assay [1] addresses T2, HLA-DQ2 (DQA1*05:01/DQB1*02:01) (human, UniProt P01909 24-216, limits assumed).
T2 construct: whole, on cells; on T2 cells
As to the kind of experiment: flow cytometry, biotinylated peptide titrated on HLA-expressing T2 cells, streptavidin-PE.

The target of assay [2] is T3, HLA-DQ2 A57D (DQA1*05:01/DQB1*02:01 A57D) (human, UniProt P01909 24-254; P01920 33-261).
T3 construct: A57D variant of the DQB1 chain, cloned into T2 cells
T3 alpha: not shown
T3 beta: not shown
Described as above.

Assay [3] has as its target T4, HLA-DQ2 trans (DQA1*03:01/DQB1*02:01) (human, UniProt P01909 24-216, limits assumed).
T4 construct: whole, on cells; on T2 cells
T4 MHC II alpha: not shown
T4 MHC II beta: not shown
Described as above.

Assay [4] deals with T5, HLA-DQ8 (DQA1*03:01/DQB1*03:02) (human, UniProt P01909 24-216; P01920 33-230, limits assumed).
T5 construct: whole, on cells; on T2 cells
T5 MHC II alpha: not shown
T5 MHC II beta: not shown
The assay is described as above.

A further assay addresses T6, HLA-DRB1*07:01 (human).
T6 construct: whole, on cells; on T2 cells by the general method; the making of this line is not described on its own; also called resistant allele (NMO)
Kind of assay: flow cytometry, biotinylated peptide on HLA-expressing T2 cells, streptavidin-PE.

The target of the next assay is T7, HLA-DRB1*04:01 G86L (human).
T7 construct: pocket 1 variant on T2 cells
The description is as above.

In the next assay the target is T8, HLA-DRB1*15:01 (human, UniProt P01903 26-216; P01911 30-227, limits assumed).
T8 construct: whole, on cells; HLA class II molecule expressed on class II negative T2 cells that carry DRA1*01:01
The assay is described as above.

The target of the next assay is T9, HLA-DRB1*15:01 V86G (human).
T9 construct: engineered allele on T2 cells
Described as above.

The target of another assay is T10, HLA-DRB1*15:01 A71R (human).
T10 construct: engineered allele on T2 cells
Described as above.

A further assay addresses T11, HLA-DRB1*15:01 F47Y (human).
T11 construct: engineered allele on T2 cells
Described as above.

Where no end group is shown, it is not given here. The star is where a group is joined. Biotin = O=C1N[C@H]2[C@H](CS[C@H]2CCCCC(=O)*)N1; PEGS = not defined here

With HLVEELYLVAGEEG (also: biotinylated, site not given here) [Insulin Mimotope peptide], the binding result in the assay with HLA-DRB1*04:01 is on record as “binds”; in assay [1] it was “no binding”; in [2] it was “binds”; in assay [3], “binds”; in [4], “binds”.
SQVETDDLILKPGVV (peptide, UniProt P55087 285-299, looked up, also: biotinylated, site not given here, also called aquaporin 4 peptide 6) [AQP4-6 peptide]: in the assay with HLA-DRB1*07:01, the binding result is “no binding (tested: 100 µM (general method))”.
Take FFRDHSYQEEA (also: biotinylated, site not given here) [MOG^97-109 peptide]: the binding result in the assay with HLA-DRB1*04:01 G86L is “no binding (tested: 100 uM)”.
As to ENPVVHFFKNIVTPRTPPP (also: biotinylated, site not given here) [MBP^83-101 peptide], the binding result in the assay with HLA-DRB1*15:01 and with HLA-DRB1*04:01 G86L was “binds” in each case.
For the molecule RSQVETDDLILKPGV (peptide, UniProt P55087 284-298, looked up, also: biotinylated, site not given here, also called aquaporin 4 peptide 5) [AQP4-5 peptide], the binding result in the assay with HLA-DRB1*07:01 is “no binding (tested: 100 µM (general method))”.
Regarding LVRYWISAFP (also: biotinylated, site not given here, also called RASDRP2) [RASGRP2 78-87 peptide], the binding result in the assay with HLA-DRB1*15:01 and with HLA-DRB1*04:01 was “binds” in each case.
As to {Biotin-PEGS}-SLQPLALEAEDLQV (reading uncertain) [Hybrid Insulin Peptide HIP11-C peptide], the binding result in the assay with HLA-DRB1*04:01 G86L is “no binding (tested: 100 uM)”; in the assay with HLA-DRB1*04:01 it was “no binding (tested: 100 uM)”; in assay [2] it was “binds”; in [3], “binds”; in [4] it was “no binding”.
For the molecule AQGTLSKIFKLGGRDSRSGSPMARR (also: biotinylated, site not given here) [MBP^146-170 peptide], the binding result in the assay with HLA-DRB1*15:01 is recorded as “no binding (tested: 100 µM (general method))”; with HLA-DRB1*04:01 G86L, “binds”; with HLA-DRB1*15:01 V86G, “binds”; in the assay with HLA-DRB1*15:01 A71R, “binds”; with HLA-DRB1*15:01 F47Y, “binds”.
For the molecule {Biotin-PEGS}-GQVELGGWSKMDQLA (reading uncertain) [Hybrid Insulin Peptide HIP1-WE14], the binding result with HLA-DRB1*04:01 G86L and with HLA-DRB1*04:01 was “no binding (tested: 100 uM)” throughout.
Take {Biotin-PEGS}-GQVELGGGSSPETLI (reading uncertain, also called HIP9; HIP9-NPY) [Hybrid Insulin Peptide HIP8-NPY]: the binding result is “no binding (tested: 100 uM)” with HLA-DRB1*04:01 G86L; “no binding (tested: 100 uM)” in the assay with HLA-DRB1*04:01; “no binding” in assay [1]; “binds” in assay [2]; “binds” in assay [3].
For the molecule {Biotin-PEGS}-GQVELGGGNAVEVLK (reading uncertain) [Hybrid Insulin Peptide HIP6-IAPP2], the binding result with HLA-DRB1*04:01 G86L and with HLA-DRB1*04:01 was “no binding (tested: 100 uM)” each time.
With AMMIARFKMFPEVKEKG (also: biotinylated, site not given here) [GAD65^265-281 peptide], the binding result in the assay with HLA-DRB1*04:01 G86L is “no binding (tested: 100 uM)”.
